Results: patent US20080032921A1

How the values were obtained:
HLA-DR DRB1*0404 (human) = assay: competition with 125I-labeled reference peptide, purified HLA
HLA-DR DRB1*0401 (human) [1] = assay: as above
HLA-DR DRB1*1302 (human) [2] = assay: as above
HLA-DR DRB1*0101 (human) [3] = assay: as above
HLA-DR DRB1*0301 (human) = assay: as above
HLA-DR DRB1*0405 (human) = assay: as above
HLA-DR DRB4*0101 (human) [4] = assay: competition with 125I-labelled reference peptide on purified HLA-DR
HLA-DR DRB1*0401 (human) [5] = assay: as above
HLA-DR DRB1*1302 (human) [6] = assay: as above
HLA-DR DRB1*0101 (human) [7] = assay: as above
HLA-DR DRB1*1501 (human) [8] = assay: as above
HLA-DR DRB4*0101 (human) [9] = assay: competition vs 125I-labeled peptide, purified HLA
HLA-DR DRB1*0401 (human) [10] = assay: competition vs 125I-labeled peptide, purified HLA
HLA-DR DRB1*1302 (human) [11] = assay: competition vs 125I-labeled peptide, purified HLA
HLA-DR DRB1*0101 (human) [12] = assay: competition vs 125I-labeled peptide, purified HLA
HLA-DR DRB1*1501 (human) [13] = assay: competition vs 125I-labeled peptide, purified HLA
[14] = target: purified HLA-DR molecule DRB1*0301 (human); assay: competition with 125I-labelled peptide for purified HLA
[15] = target: purified HLA-DR molecule DRB1*0401 (human); assay: as above
[16] = target: purified HLA-DR molecule DRB1*0404 (human); assay: as above
[17] = target: purified HLA-DR molecule DRB1*1302 (human); assay: as above

Binder: QLLLEVEQEIRTFSF (modifications not checked) [Flu.NS2.180]
- IC50 (HLA-DR DRB1*0404 (human)): 1600 nM
- IC50 (HLA-DR DRB1*0401 (human) [1]): 13900 nM
- IC50 (HLA-DR DRB1*1302 (human) [2]): 13200 nM
- IC50 (HLA-DR DRB1*0101 (human) [3]): 11900 nM
- IC50 (HLA-DR DRB1*0301 (human)): 792 nM
- IC50 (HLA-DR DRB1*0405 (human)): 5140 nM

Binder: RTFFLTQGALLNDKHS (modifications not checked) [Flu.NA.110 peptide …]
- IC50 (HLA-DR DRB4*0101 (human) [4]): 2320 nM
- IC50 (HLA-DR DRB1*0401 (human) [5]): 251 nM
- IC50 (HLA-DR DRB1*1302 (human) [6]): 3200 nM
- IC50 (HLA-DR DRB1*0101 (human) [7]): 16 nM
- IC50 (HLA-DR DRB1*1501 (human) [8]): 790 nM

Binder: ILSIYSTVASSLALAI (modifications not checked) [Flu.HA.532]
- IC50 (HLA-DR DRB4*0101 (human) [9]): 824 nM
- IC50 (HLA-DR DRB1*0401 (human) [10]): 91 nM
- IC50 (HLA-DR DRB1*1302 (human) [11]): 7.6 nM
- IC50 (HLA-DR DRB1*0101 (human) [12]): 11 nM
- IC50 (HLA-DR DRB1*1501 (human) [13]): 20 nM

Binder: IGNMISIWVSHSIHTG (modifications not checked) [Flu.NA.26 peptide …]
- IC50 (HLA-DR DRB4*0101 (human) [4]): 817 nM
- IC50 (HLA-DR DRB1*0401 (human) [5]): 925 nM
- IC50 (HLA-DR DRB1*1302 (human) [6]): 5950 nM
- IC50 (HLA-DR DRB1*0101 (human) [7]): 1050 nM
- IC50 (HLA-DR DRB1*1501 (human) [8]): 81 nM

Binder: KYPITADKRIMEMIP (modifications not checked) [… (Flu.PB2.57)]
- IC50 [14]: 48 nM
- IC50 [15]: 9390 nM
- IC50 [16]: 2290 nM
- IC50 [17]: 68 nM

Binder: TRPILSPLTKGILGF (modifications not checked) [Flu.M1.51]
- IC50 (HLA-DR DRB4*0101 (human) [9]): 192 nM
- IC50 (HLA-DR DRB1*1302 (human) [11]): 292 nM
- IC50 (HLA-DR DRB1*0101 (human) [12]): 423 nM
- IC50 (HLA-DR DRB1*1501 (human) [13]): 140 nM

Binder: IYQILSIYSTVASSLA (modifications not checked) [Flu.HA.529]
- IC50 (HLA-DR DRB4*0101 (human) [9]): 18 nM
- IC50 (HLA-DR DRB1*0401 (human) [10]): 89 nM
- IC50 (HLA-DR DRB1*1302 (human) [11]): 13 nM
- IC50 (HLA-DR DRB1*0101 (human) [12]): 55 nM
- IC50 (HLA-DR DRB1*1501 (human) [13]): 4.7 nM

Binder: PTTYISVGTSTLNQRL (modifications not checked) [Flu.HA.210]
- IC50 (HLA-DR DRB4*0101 (human) [9]): 522 nM
- IC50 (HLA-DR DRB1*0401 (human) [10]): 59 nM
- IC50 (HLA-DR DRB1*1302 (human) [11]): 957 nM
- IC50 (HLA-DR DRB1*0101 (human) [12]): 190 nM
- IC50 (HLA-DR DRB1*1501 (human) [13]): 1720 nM

Binder: VVWLIKKNSTYPTIKR (modifications not checked) [Flu.HA.163]
- IC50 (HLA-DR DRB4*0101 (human) [9]): 1660 nM
- IC50 (HLA-DR DRB1*0401 (human) [10]): 289 nM
- IC50 (HLA-DR DRB1*1302 (human) [11]): 14 nM
- IC50 (HLA-DR DRB1*0101 (human) [12]): 464 nM
- IC50 (HLA-DR DRB1*1501 (human) [13]): 99 nM

Binder: EALMEWLKTRPILSP (modifications not checked) [Flu.M1.43]
- IC50 (HLA-DR DRB4*0101 (human) [9]): 5510 nM
- IC50 (HLA-DR DRB1*0401 (human) [10]): 891 nM
- IC50 (HLA-DR DRB1*1302 (human) [11]): 380 nM
- IC50 (HLA-DR DRB1*0101 (human) [12]): 9.5 nM
- IC50 (HLA-DR DRB1*1501 (human) [13]): 18 nM

Binder: VAVLKYNGIITDTIKSW (modifications not checked) [Flu.NA.183 peptide …]
- IC50 (HLA-DR DRB4*0101 (human) [4]): 289 nM
- IC50 (HLA-DR DRB1*0401 (human) [5]): 319 nM
- IC50 (HLA-DR DRB1*1302 (human) [6]): 169 nM
- IC50 (HLA-DR DRB1*0101 (human) [7]): 3390 nM
- IC50 (HLA-DR DRB1*1501 (human) [8]): 19 nM

Binder: NGTVKDRSPHRTLMS (modifications not checked) [Flu.NA.126 peptide …]
- IC50 (HLA-DR DRB4*0101 (human) [4]): 8880 nM
- IC50 (HLA-DR DRB1*0401 (human) [5]): 17900 nM
- IC50 (HLA-DR DRB1*1302 (human) [6]): 7930 nM
- IC50 (HLA-DR DRB1*0101 (human) [7]): 581 nM
- IC50 (HLA-DR DRB1*1501 (human) [8]): 267 nM

Binder: NLEYQIGYICSGVFG (modifications not checked) [Flu.NA.289 peptide …]
- IC50 (HLA-DR DRB4*0101 (human) [4]): 354 nM
- IC50 (HLA-DR DRB1*0401 (human) [5]): 975 nM
- IC50 (HLA-DR DRB1*1302 (human) [6]): 41 nM
- IC50 (HLA-DR DRB1*0101 (human) [7]): 1130 nM
- IC50 (HLA-DR DRB1*1501 (human) [8]): 13 nM

Binder: ALQLLFEVEQEIRTF (modifications not checked) [Flu.NS2.178]
- IC50 (HLA-DR DRB1*0404 (human)): 2150 nM
- IC50 (HLA-DR DRB1*0401 (human) [1]): 10300 nM
- IC50 (HLA-DR DRB1*1302 (human) [2]): > 10000 nM
- IC50 (HLA-DR DRB1*0101 (human) [3]): 3490 nM
- IC50 (HLA-DR DRB1*0301 (human)): 403 nM
- IC50 (HLA-DR DRB1*0405 (human)): 8870 nM

Binder: SIWIELDEIGEDVAP (modifications not checked) [Flu.PA.423]
- IC50 (HLA-DR DRB1*0401 (human) [1]): 5400 nM
- IC50 (HLA-DR DRB1*1302 (human) [2]): > 10000 nM
- IC50 (HLA-DR DRB1*0101 (human) [3]): 13400 nM
- IC50 (HLA-DR DRB1*0301 (human)): 59 nM
- IC50 (HLA-DR DRB1*0405 (human)): > 10000 nM

Binder: MEWLKTRPILSPLTK (modifications not checked) [Flu.M1.46]
- IC50 (HLA-DR DRB4*0101 (human) [9]): 7940 nM
- IC50 (HLA-DR DRB1*0401 (human) [10]): 528 nM
- IC50 (HLA-DR DRB1*1302 (human) [11]): 3880 nM
- IC50 (HLA-DR DRB1*0101 (human) [12]): 52 nM
- IC50 (HLA-DR DRB1*1501 (human) [13]): 111 nM

Binder: GGEVRNDDVDQSLII (modifications not checked) [… (Flu.PB2.250)]
- IC50 [14]: 347 nM
- IC50 [15]: 2160 nM
- IC50 [16]: 458 nM
- IC50 [17]: 2500 nM
